Columns and labels:
4H683-bA = molecular target: T1, 4H683-bA; assay: two-hybrid library CCNG1;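 also: natural log of median RNA to DNA barcode read ratio; higher means stronger binding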
T1 chain: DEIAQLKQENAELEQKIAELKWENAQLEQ

4H346-bA = molecular target: T2, 4H346-bA; assay: two-hybrid library CCNG1;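 also: natural log of median RNA to DNA barcode read ratio; higher means stronger binding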
T2 chain: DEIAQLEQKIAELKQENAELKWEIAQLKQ

4H780-bA = molecular target: T3, 4H780-bA; assay: two-hybrid library CCNG1;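 also: natural log of median RNA to DNA barcode read ratio; higher means stronger binding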
T3 chain: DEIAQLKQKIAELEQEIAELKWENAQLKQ

4H918-bA = molecular target: T4, 4H918-bA; assay: two-hybrid library CCNG1;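 also: natural log of median RNA to DNA barcode read ratio; higher means stronger binding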
T4 chain: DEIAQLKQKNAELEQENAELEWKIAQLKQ

4H3010-bA = molecular target: T5, 4H3010-bA; assay: two-hybrid library CCNG1;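 also: natural log of median RNA to DNA barcode read ratio; higher means stronger binding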
T5 chain: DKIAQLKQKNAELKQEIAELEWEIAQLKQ

4H1158-bA = molecular target: T6, 4H1158-bA; assay: two-hybrid library CCNG1;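 also: natural log of median RNA to DNA barcode read ratio; higher means stronger binding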
T6 chain: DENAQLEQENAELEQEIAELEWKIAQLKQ

4H2253-bA = molecular target: T7, 4H2253-bA; assay: two-hybrid library CCNG1
T7 chain: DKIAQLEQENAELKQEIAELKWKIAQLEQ

4H3926-bA = molecular target: T8, 4H3926-bA; assay: two-hybrid library CCNG1
T8 chain: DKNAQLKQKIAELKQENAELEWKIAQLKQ

4H754-bA = molecular target: T9, 4H754-bA; assay: two-hybrid library CCNG1
T9 chain: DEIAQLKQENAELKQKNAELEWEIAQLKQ

4H953-bA = molecular target: T10, 4H953-bA; assay: two-hybrid library CCNG1
T10 chain: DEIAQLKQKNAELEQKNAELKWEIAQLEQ

4H2586-bA = molecular target: T11, 4H2586-bA; assay: two-hybrid library CCNG1
T11 chain: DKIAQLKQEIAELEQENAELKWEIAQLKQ

4H3112-bA = molecular target: T12, 4H3112-bA; assay: two-hybrid library CCNG1
T12 chain: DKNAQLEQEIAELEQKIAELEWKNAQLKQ

4H1831-bA = molecular target: T13, 4H1831-bA; assay: two-hybrid library CCNG1
T13 chain: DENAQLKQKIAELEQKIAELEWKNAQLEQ

4H797-bA = molecular target: T14, 4H797-bA; assay: two-hybrid library CCNG1
T14 chain: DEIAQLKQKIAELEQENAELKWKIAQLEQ

4H4073-bA = molecular target: T15, 4H4073-bA; assay: two-hybrid library CCNG1
T15 chain: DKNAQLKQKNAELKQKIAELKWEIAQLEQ

4H2673-bA = molecular target: T16, 4H2673-bA; assay: two-hybrid library CCNG1
T16 chain: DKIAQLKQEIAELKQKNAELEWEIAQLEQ

4H2627-bA = molecular target: T17, 4H2627-bA; assay: two-hybrid library CCNG1
T17 chain: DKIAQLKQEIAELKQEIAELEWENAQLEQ

4H968-bA = molecular target: T18, 4H968-bA; assay: two-hybrid library CCNG1
T18 chain: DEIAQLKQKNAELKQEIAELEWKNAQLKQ

4H457-bA = molecular target: T19, 4H457-bA; assay: two-hybrid library CCNG1
T19 chain: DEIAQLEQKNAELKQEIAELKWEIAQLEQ

4H118-bA = molecular target: T20, 4H118-bA; assay: two-hybrid library CCNG1
T20 chain: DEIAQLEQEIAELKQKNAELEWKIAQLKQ

4H2702-bA = molecular target: T21, 4H2702-bA; assay: two-hybrid library CCNG1
T21 chain: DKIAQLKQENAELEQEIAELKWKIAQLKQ

4H3427-bA = molecular target: T22, 4H3427-bA; assay: two-hybrid library CCNG1
T22 chain: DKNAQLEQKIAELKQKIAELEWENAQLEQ

4H855-bA = molecular target: T23, 4H855-bA; assay: two-hybrid library CCNG1
T23 chain: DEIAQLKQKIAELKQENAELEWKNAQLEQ

4H575-bA = molecular target: T24, 4H575-bA; assay: two-hybrid library CCNG1
T24 chain: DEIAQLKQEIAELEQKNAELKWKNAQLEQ

4H170-bA = molecular target: T25, 4H170-bA; assay: two-hybrid library CCNG1
T25 chain: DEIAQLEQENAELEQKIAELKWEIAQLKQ

4H72-bH = molecular target: T26, 4H72-bH; assay: two-hybrid library CCNG1
T26 chain: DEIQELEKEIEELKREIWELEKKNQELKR

4H4001-bH = molecular target: T27, 4H4001-bH; assay: two-hybrid library CCNG1
T27 chain: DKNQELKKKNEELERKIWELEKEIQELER

4H3606-bH = molecular target: T28, 4H3606-bH; assay: two-hybrid library CCNG1
T28 chain: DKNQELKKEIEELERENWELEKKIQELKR

4H370-bH = molecular target: T29, 4H370-bH; assay: two-hybrid library CCNG1
T29 chain: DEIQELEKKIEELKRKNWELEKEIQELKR

4H3189-bH = molecular target: T30, 4H3189-bH; assay: two-hybrid library CCNG1
T30 chain: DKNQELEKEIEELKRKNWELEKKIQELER

4H3843-bH = molecular target: T31, 4H3843-bH; assay: two-hybrid library CCNG1
T31 chain: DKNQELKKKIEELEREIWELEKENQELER

4H953-bH = molecular target: T32, 4H953-bH; assay: two-hybrid library CCNG1
T32 chain: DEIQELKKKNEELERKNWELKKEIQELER

4H2697-bH = molecular target: T33, 4H2697-bH; assay: two-hybrid library CCNG1
T33 chain: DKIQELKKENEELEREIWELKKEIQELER

4H1845-bH = molecular target: T34, 4H1845-bH; assay: two-hybrid library CCNG1
T34 chain: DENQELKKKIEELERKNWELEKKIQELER

4H1369-bH = molecular target: T35, 4H1369-bH; assay: two-hybrid library CCNG1
T35 chain: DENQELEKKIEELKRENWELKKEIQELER

4H3782-bH = molecular target: T36, 4H3782-bH; assay: two-hybrid library CCNG1
T36 chain: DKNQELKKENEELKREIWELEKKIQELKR

4H462-bH = molecular target: T37, 4H462-bH; assay: two-hybrid library CCNG1
T37 chain: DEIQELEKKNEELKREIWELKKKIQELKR

4H687-bH = molecular target: T38, 4H687-bH; assay: two-hybrid library CCNG1
T38 chain: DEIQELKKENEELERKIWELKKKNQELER

4H2667-bH = molecular target: T39, 4H2667-bH; assay: two-hybrid library CCNG1
T39 chain: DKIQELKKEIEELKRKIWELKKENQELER

4H967-bH = molecular target: T40, 4H967-bH; assay: two-hybrid library CCNG1
T40 chain: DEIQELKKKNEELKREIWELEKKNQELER

4H1446-bH = molecular target: T41, 4H1446-bH; assay: two-hybrid library CCNG1
T41 chain: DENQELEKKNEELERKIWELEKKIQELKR

4H331-bH = molecular target: T42, 4H331-bH; assay: two-hybrid library CCNG1
T42 chain: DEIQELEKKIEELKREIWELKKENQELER

4H883-bH = molecular target: T43, 4H883-bH; assay: two-hybrid library CCNG1
T43 chain: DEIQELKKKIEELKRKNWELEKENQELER

4H2610-bH = molecular target: T44, 4H2610-bH; assay: two-hybrid library CCNG1
T44 chain: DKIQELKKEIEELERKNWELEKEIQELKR

4H2576-bH = molecular target: T45, 4H2576-bH; assay: two-hybrid library CCNG1
T45 chain: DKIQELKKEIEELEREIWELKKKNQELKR

4H918-bH = molecular target: T46, 4H918-bH; assay: two-hybrid library CCNG1
T46 chain: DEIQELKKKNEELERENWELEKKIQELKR

4H797-bH = molecular target: T47, 4H797-bH; assay: two-hybrid library CCNG1
T47 chain: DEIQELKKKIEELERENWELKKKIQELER

4H607-bH = molecular target: T48, 4H607-bH; assay: two-hybrid library CCNG1
T48 chain: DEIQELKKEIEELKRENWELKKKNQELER

4H568-bH = molecular target: T49, 4H568-bH; assay: two-hybrid library CCNG1
T49 chain: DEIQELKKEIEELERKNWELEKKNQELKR

P2-AA-1HAA-H = molecular target: T50, P2-AA-1HAA-H; assay: two-hybrid library CCmax; conditions: mean of both orientations
T50 chain: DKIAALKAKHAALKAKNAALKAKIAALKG

P2-AA = molecular target: T51, P2-AA; assay: two-hybrid library CCmax; conditions: mean of both orientations
T51 chain: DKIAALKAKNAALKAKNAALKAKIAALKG

P2-AA-1HAA-T = molecular target: T52, P2-AA-1HAA-T; assay: two-hybrid library CCmax; conditions: mean of both orientations
T52 chain: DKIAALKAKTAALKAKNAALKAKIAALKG

P2-AA-1HAA-I = molecular target: T53, P2-AA-1HAA-I; assay: two-hybrid library CCmax; conditions: mean of both orientations
T53 chain: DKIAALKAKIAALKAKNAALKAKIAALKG

P2-AA-1HAA-D = molecular target: T54, P2-AA-1HAA-D; assay: two-hybrid library CCmax; conditions: mean of both orientations
T54 chain: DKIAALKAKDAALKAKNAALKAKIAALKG

P2-AA-1HAA-E = molecular target: T55, P2-AA-1HAA-E; assay: two-hybrid library CCmax; conditions: mean of both orientations
T55 chain: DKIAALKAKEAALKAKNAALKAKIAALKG

P2-AA-1HAA-V = molecular target: T56, P2-AA-1HAA-V; assay: two-hybrid library CCmax; conditions: mean of both orientations
T56 chain: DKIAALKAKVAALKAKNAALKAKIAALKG

P2-AA-1HAA-R = molecular target: T57, P2-AA-1HAA-R; assay: two-hybrid library CCmax; conditions: mean of both orientations
T57 chain: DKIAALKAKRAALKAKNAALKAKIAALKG

P2-AA-1HAA-S = molecular target: T58, P2-AA-1HAA-S; assay: two-hybrid library CCmax; conditions: mean of both orientations
T58 chain: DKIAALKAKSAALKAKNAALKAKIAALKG

B1: 4H1158-bA (peptide)
chain: DENAQLEQENAELEQEIAELEWKIAQLKQ
interaction score (4H683-bA): -1.19 | interaction score (4H346-bA): -0.31 | interaction score (4H780-bA): 0.459 | interaction score (4H918-bA): -0.069 | interaction score (4H3010-bA): 2.11 | interaction score (4H1158-bA): -0.559 | interaction score (4H2253-bA): 0.12 | interaction score (4H3926-bA): 0.769 | interaction score (4H754-bA): -0.283 | interaction score (4H953-bA): -0.12 | interaction score (4H2586-bA): -0.706 | interaction score (4H3112-bA): -0.0196 | interaction score (4H1831-bA): 0.132 | interaction score (4H797-bA): 0 | interaction score (4H4073-bA): 2.53 | interaction score (4H2673-bA): -0.0392 | interaction score (4H2627-bA): 1.15 | interaction score (4H968-bA): 0.0766 | interaction score (4H457-bA): 1.02 | interaction score (4H118-bA): 0.591 | interaction score (4H2702-bA): 0.584 | interaction score (4H3427-bA): 0.681 | interaction score (4H855-bA): 0.0299 | interaction score (4H575-bA): 0.324 | interaction score (4H170-bA): -1.67

B2: 4H1328-bH (peptide)
chain: DENQELEKKIEELERKIWELKKKNQELKR
interaction score (4H72-bH): 0.492 | interaction score (4H4001-bH): 1.01 | interaction score (4H3606-bH): 0.235 | interaction score (4H370-bH): -0.934 | interaction score (4H3189-bH): -0.241 | interaction score (4H3843-bH): 1.38 | interaction score (4H953-bH): -0.534 | interaction score (4H2697-bH): 0.213 | interaction score (4H1845-bH): -0.384 | interaction score (4H1369-bH): -1.31 | interaction score (4H3782-bH): 0.448 | interaction score (4H462-bH): 0 | interaction score (4H687-bH): -1.73 | interaction score (4H2667-bH): -0.993 | interaction score (4H967-bH): -1.62 | interaction score (4H1446-bH): 0.331 | interaction score (4H331-bH): 1.28 | interaction score (4H883-bH): 0.137 | interaction score (4H2610-bH): 0.958 | interaction score (4H2576-bH): 1.67 | interaction score (4H918-bH): -0.116 | interaction score (4H797-bH): 0.552 | interaction score (4H607-bH): -1.86 | interaction score (4H568-bH): 0.634

B3: P1-AA-1HAA-T (peptide)
chain: DEIAALEAETAALEAENAALEAEIAALEG
interaction score (P2-AA-1HAA-H): 2.07 | interaction score (P2-AA): 1.88 | interaction score (P2-AA-1HAA-T): 1.69 | interaction score (P2-AA-1HAA-I): 2.05 | interaction score (P2-AA-1HAA-D): 1.99 | interaction score (P2-AA-1HAA-E): 2.02 | interaction score (P2-AA-1HAA-V): 2.02 | interaction score (P2-AA-1HAA-R): 1.93 | interaction score (P2-AA-1HAA-S): 2.1

— paper PMC10397247
